Data published in US9540613B2, “Methods for producing insulin-secreting beta cells from human pluripotent stem cells” (Wisconsin Alumni Research Foundation, priority 2013, dated 2017).

Key:
[1] = system: human pluripotent stem cells; assay: Replacement of FGF2 by other FGFs in Stage 1 differentiation; format: cell-based; conditions: FGF used in Stage 1 medium
Excerpt: In some embodiments, the FGF used in Stage 1 is selected from the group consisting of FGF2, FGF4, FGF7, FGF10 and the mixtures thereof. […] Thus, one would use any one of FGF4, FGF7 and FGF10 to replace FGF2 in Stage 1. One may also use mixtures of two or more of FGF2, FGF4, FGF7 and FGF10 in this stage. In a specific embodiment, the FGF in Stage 1 is FGF2.

[2] = system: PDX1, NKX6.1, Neurogenin 3 and insulin gene expression; assay: QPCR gene expression of endoderm and pancreatic markers in differentiated cells; format: cell-based, human
Description: QPCR was performed at the end of Stage 4 ([…] Day 18) to examine gene expression of PDX1, a marker of pancreatic epithelium and progenitor cells, insulin, a marker of beta cells, and Sox9 which is expressed in the developing pancreatic epithelium. The gene expression is compared to undifferentiated cells collected at Day 0 and β-Actin is the internal control. […] Human Fetal Pancreas (HFP), gestation 14-20 weeks, is represented as a positive control.
In FIG. 19, the gene expression is compared to undifferentiated cells collected at Day 0 and B-Actin is the internal control. On the y axis is delta CT (instead of fold change), thus, the lower the value the greater the gene expression.
First, alterations at Stage 3 and 4 altered gene expression minimally. […] On the y axis is delta CT (instead of fold change), thus, the lower the value the greater the gene expression. […] In contrast the addition of Noggin at Stage 4, decreased PDX1 and NKX6.1 gene expression and increased Neurogenin 3 expression. There was no difference in insulin gene expression following the addition of Noggin to Stage 4.

[3] = system: PDX1 and insulin protein expression in H1 cells; assay: Flow cytometry of PDX1 and insulin protein expression at end of Stage 4; format: cell-based, human
Excerpt: To quantify insulin and PDX1 protein expression we optimized a flow cytometry assay. […] The INS-1 cell line is an immortalized pancreatic beta cell line that expresses both PDX1 and insulin. On the bottom left, is our negative control, unstained H1 cells differentiated for 18 days. On the right, is H1 cells differentiated by the current protocol through day 18 stained with Insulin-PB and PDX1-AF488. […] Only 8-11% of the cells are PDX1 and insulin double positive.
To examine protein expression we collected cells at the end of Stage 4 and examined them by flow cytometry.
Thus, the effect of Noggin is context dependent and synergistic with nicotinamide and Exendin-4.

[4] = system: insulin protein expression; assay: Immunohistochemistry of insulin protein expression after Stage 4; format: cell-based, human; conditions: addition of Noggin at Stage 4
Description: Immunohistochemistry was performed at the end of Stage 4 (Day 18) to examine protein expression of Insulin and NKX6.1.

B1: FGF4: fibroblast growth factor family ligand (protein, UniProt P08620 31-206, looked up)
Fibroblast growth factor 4: APTAPNGTLEAELERRWESLVALSLARLPVAAQPKEAAVQSGAGDYLLGIKRLRRLYCNVGIGFHLQALPDGRIGGAHADTRDSLLELSPVERGVVSIFGVASRFFVAMSSKGKLYGSPFFTDECTFKEILLPNNYNAYESYKYPGMFIALSKNGKTKKGNRVSPTMKVTHFLPRL
Question: B1 was tested. Which “effects in Stage 1 relative to FGF2” value [1] did it give?
Answer: comparable to FGF2

B2: FGF7: fibroblast growth factor 7 (protein, UniProt P21781 32-194, looked up)
Fibroblast growth factor 7: CNDMTPEQMATNVNCSSPERHTRSYDYMEGGDIRVRRLFCRTQWYLRIDKRGKVKGTQEMKNNYNIMEIRTVAVGIVAIKGVESEFYLAMNKEGKLYAKKECNEDCNFKELILENHYNTYASAKWTHNGGEMFVALNQKGIPVRGKKTKKEQKTAHFLPMAIT
Question: For B2, which “effects in Stage 1 relative to FGF2” value [1] is on record?
Answer: comparable to FGF2

B3: Noggin: a protein which in humans is encoded by the NOG gene; inhibits TGF-β signal transduction (protein, UniProt Q13253 28-232, looked up)
Noggin: QHYLHIRPAPSDNLPLVDLIEHPDPIFDPKEKDLNETLLRSLLGGHYDPGFMATSPPEDRPGGGGGAAGGAEDLAELDQLLRQRPSGAMPSEIKGLEFSEGLAQGKKQRLSKKLRRKLQMWLWSQTFCPVLYAWNDLGSRFWPRYVKVGSCFSKRSCSVPEGMVCKPSKSVHLTVLRWRCQRRGGQRCGWIPIQYPIISECKCSC
Question: With B3 as the molecule, how does the NKX6.1 gene expression ([2]; addition of Noggin at Stage 4) read?
Answer: decreased

Question: What about the “Neurogenin 3 expression” value ([2]; addition of Noggin at Stage 4) of the same molecule?
Answer: increased

Question: What about the PDX1 gene expression ([2]; addition of Noggin at Stage 4) of the same molecule?
Answer: decreased

Question: What about the insulin gene expression ([2]; addition of Noggin to Stage 4) of the same molecule?
Answer: no difference

Question: What about the double positive cells ([3]; Noggin in the context of ITSFINE) of the same molecule?
Answer: increases double positive cells

Question: What about the insulin expression ([3]; addition of Noggin at Stage 4 (ITSFINE)) of the same molecule?
Answer: increases insulin expression

Question: And the double positive cells ([3]; addition of Noggin in the absence of nicotinamide and Exendin-4 (ITSFI))?
Answer: does not further increase the double positive cells

Question: What about the “clustering and insulin protein expression” value [4] of the same molecule?
Answer: increased clustering and insulin protein expression

Question: And the “hormonal status of insulin-expressing cells” value [4]?
Answer: a majority of those cells are still polyhormonal

B4: FGF10: fibroblast growth factor family ligand (protein, UniProt O15520 38-208, looked up)
Fibroblast growth factor 10: QALGQDMVSPEATNSSSSSFSSPSSAGRHVRSYNHLQGDVRWRKLFSFTKYFLKIEKNGKVSGTKKENCPYSILEITSVEIGVVAVKAINSNYYLAMNKKGKLYGSKEFNNDCKLKERIEENGYNTYASFNWQHNGRQMYVALNGKGAPRRGQKTRRKNTSAHFLPMVVHS
Question: For B4, which “effects in Stage 1 relative to FGF2” value [1] is on record?
Answer: comparable to FGF2
